From patent publication US20100254975A1 (Amgen, published 2010)

Key:
human alpha4beta7 [1] = target: T1, human alpha4beta7 (human, UniProt P13612 34-1032; P26010 20-798); experiment: FACS, biotinylated antibody on human CD4+CD45RA- memory T cells
T1 construct: whole, on cells; also called a4b7; wt
Experimental: Human peripheral blood mononuclear cells (PBMC; fresh or frozen and thawed, for example in phosphate buffered saline with 2% FBS) are washed and resuspended in HEPES buffer (30 mM HEPES+[…]) with 1% BSA, with or without 1 mM MnCl₂ (depending on the experiment; Mn²⁺ is necessary for MAdCAM-1 binding) and plated into 96 well plates (10⁶cells/well). Cells are incubated with 10 microG/ml human IgG for 30 minutes on ice to block nonspecific binding. Cells are then incubated with serial dilutions of biotinylated anti-alpha4beta7 antibodies in 96 well plates for one hour on ice, followed by addition of 1:100 dilution of streptavidin-phycoerythrin (PE; Jackson ImmunoResearch Laboratories Inc., West Grove, Pa.), 4 microL CD3-Pacific Blue, CD4-PerCP-Cy5.5 and CD45RA-fluorescein isothiocyanate (FITC) (BD Biosciences, San Jose Calif.) for a final volume of 100 microL, and incubated for another hour on ice. Cells were washed twice with HEPES buffer (with or without MnCl₂, correspondingly) and then fixed in 200 microL HEPES buffer plus 0.5% paraformaldehyde (again, with or without MnCl₂, correspondingly). The percentage of positive alpha4beta7 antibody binding CD4+CD45RA-memory T cells is determined using a fluorescence activated cell sorter (FACS), for example, a BD™ LSR II benchtop flow cytometer (BD Biosciences, San Jose Calif.).

a4(V824A)b7 (human) = a4(V824A)b7 (human) (UniProt P13612); experiment: FACS on transfected 293 cells, 1 microG/ml, PE anti-human IgG
a4(Q878R)b7 (human) = a4(Q878R)b7 (human) (UniProt P13612); experiment: as above
a4b7(G629S) (human) = a4b7(G629S) (human) (UniProt P13612); experiment: as above
a4b7(R213S) (human) = a4b7(R213S) (human) (UniProt P13612); experiment: as above
a4b7(E97V) (human) = a4b7(E97V) (human) (UniProt P13612); experiment: as above
human alpha4beta7 [2] = target: T1, human alpha4beta7; experiment: FACS competition, blocks biotinylated MAdCAM-1-Fc binding to human CD4+CD45RA- memory T cells
Experimental: PBMC (fresh or frozen as described previously) are washed and resuspended in HEPES buffer (30 mM HEPES+[…]) with 1% BSA and 1 mM MnCl. to a final concentration of 10⁷cells/ml. Cells are blocked as described previously; after blocking, cells are incubated with a serial dilution of anti-alpha4beta7 antibody (or appropriate control) in 96 well plates for 30 minutes on ice, and then with 0.3 microG/ml biotinylated MAdCAM-1-Fc protein for another one hour.
After two washes in HEPES buffer with 1 mM MnCl, cells are treated with 1:100 dilution of streptavidin-PE, 4 microL CD3-Pacific Blue, CD4-PerCP-Cy5.5 and CD45RA-FITC as described previously, in a final volume of 100 microL. After one hour incubation on ice, cells are washed twice with HEPES buffer with 1 mM MnCl and then fixed in 200 microL buffer plus 0.5% paraformaldehyde. The percentage of positive MAdCAM-1-Fc binding CD4+CD45RA-memory T cells is determined by fluorescence activated cell sorter (FACS) analysis, as described previously.

human alpha4beta7 [3] = target: T1, human alpha4beta7; experiment: cell-based or functional assay
human alpha4beta7 [4] = target: T1, human alpha4beta7; experiment: FACS on transfected 293 cells, 1 microG/ml, PE anti-human IgG
Excerpt: Point mutant constructs representing amino acid altering SNPs (a4b7(E97V); a4b7(R213S); a4b7(G629S; a4(V824A)b7; a4(Q878R)b7) in the extracellular domains of both alpha4 and beta7 were generated. Each point mutant construct was transfected to 293 cells along with the wild-type partner expression construct. Transfected 293 cells were first stained with 1 microG/ml of human IgG or anti-alpha4beta7 antibody, washed with PBS, and the stained with phycoerytherin conjugated secondary antibody goat-anti human IgG. After washing with PBS, cells were analyzed by fluorescence activated cell sorting, for example, with a FACSCalibur™ (BD Biosciences, San Jose Calif.).

Chain of a4(V824A)b7 (human) (P13612 34-1032 V824A, chain 1 of 2): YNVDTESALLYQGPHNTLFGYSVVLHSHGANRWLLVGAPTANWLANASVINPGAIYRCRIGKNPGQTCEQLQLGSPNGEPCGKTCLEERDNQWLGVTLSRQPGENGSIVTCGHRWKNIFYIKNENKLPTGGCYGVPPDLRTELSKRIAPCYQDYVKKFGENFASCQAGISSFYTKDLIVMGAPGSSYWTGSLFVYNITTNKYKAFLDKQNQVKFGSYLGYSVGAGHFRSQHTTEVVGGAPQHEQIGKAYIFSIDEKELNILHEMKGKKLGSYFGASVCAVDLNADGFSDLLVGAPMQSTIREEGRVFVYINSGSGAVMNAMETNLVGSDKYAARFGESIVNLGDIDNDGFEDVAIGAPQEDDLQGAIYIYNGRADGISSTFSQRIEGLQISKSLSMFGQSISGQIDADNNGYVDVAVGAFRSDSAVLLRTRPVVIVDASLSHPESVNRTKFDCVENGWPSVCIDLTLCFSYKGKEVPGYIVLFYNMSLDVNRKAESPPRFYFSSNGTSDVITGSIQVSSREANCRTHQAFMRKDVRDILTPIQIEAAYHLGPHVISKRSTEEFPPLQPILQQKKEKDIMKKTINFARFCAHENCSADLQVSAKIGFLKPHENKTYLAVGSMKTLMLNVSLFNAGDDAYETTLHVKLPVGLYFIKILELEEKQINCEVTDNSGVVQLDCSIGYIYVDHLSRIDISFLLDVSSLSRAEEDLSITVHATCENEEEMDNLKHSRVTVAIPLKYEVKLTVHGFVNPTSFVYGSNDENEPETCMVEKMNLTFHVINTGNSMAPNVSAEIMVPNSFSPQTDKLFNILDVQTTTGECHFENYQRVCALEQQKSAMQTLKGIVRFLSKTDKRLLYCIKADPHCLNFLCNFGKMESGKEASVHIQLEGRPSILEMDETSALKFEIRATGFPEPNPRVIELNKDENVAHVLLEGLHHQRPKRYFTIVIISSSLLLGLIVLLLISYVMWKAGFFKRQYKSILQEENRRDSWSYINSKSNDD
Chain of a4(V824A)b7 (human) (P26010 20-798, chain 2 of 2, further chain): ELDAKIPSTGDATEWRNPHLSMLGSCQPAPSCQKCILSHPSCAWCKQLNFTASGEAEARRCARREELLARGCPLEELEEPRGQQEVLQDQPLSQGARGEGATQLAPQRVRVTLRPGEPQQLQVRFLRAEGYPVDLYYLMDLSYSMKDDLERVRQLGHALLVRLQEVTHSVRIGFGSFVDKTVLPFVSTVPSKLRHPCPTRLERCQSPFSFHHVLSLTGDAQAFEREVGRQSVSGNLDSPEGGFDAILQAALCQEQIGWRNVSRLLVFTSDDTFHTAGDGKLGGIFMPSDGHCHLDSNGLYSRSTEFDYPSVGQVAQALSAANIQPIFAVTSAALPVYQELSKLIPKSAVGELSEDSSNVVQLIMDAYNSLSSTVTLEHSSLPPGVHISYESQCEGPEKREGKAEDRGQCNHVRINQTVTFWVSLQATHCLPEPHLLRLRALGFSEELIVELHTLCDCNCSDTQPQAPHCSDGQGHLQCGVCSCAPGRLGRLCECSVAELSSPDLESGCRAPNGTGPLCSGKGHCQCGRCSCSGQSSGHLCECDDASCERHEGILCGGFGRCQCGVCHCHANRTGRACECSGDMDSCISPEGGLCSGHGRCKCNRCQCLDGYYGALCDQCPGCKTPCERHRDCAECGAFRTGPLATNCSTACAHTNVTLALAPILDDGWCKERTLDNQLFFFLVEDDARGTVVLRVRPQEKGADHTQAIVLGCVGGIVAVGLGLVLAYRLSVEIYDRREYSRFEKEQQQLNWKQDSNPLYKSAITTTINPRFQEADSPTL
Chain of a4b7(E97V) (human) (P13612 34-1032, chain 1 of 2): as the sequence (P13612 34-1032 V824A, chain 1 of 2) above, with A791V counted along it
Chain of a4b7(E97V) (human) (P26010 20-798 E97V, chain 2 of 2, further chain): as the sequence (P26010 20-798, chain 2 of 2, further chain) above, with E78V counted along it
T1 sequence (P13612 34-1032, chain 1 of 2): as the sequence (P13612 34-1032 V824A, chain 1 of 2) above, with A791V counted along it
T1 sequence (P26010 20-798, chain 2 of 2): as the sequence (P26010 20-798, chain 2 of 2, further chain) above
Chain of a4b7(R213S) (human) (P13612 34-1032, chain 1 of 2): as the sequence (P13612 34-1032 V824A, chain 1 of 2) above, with A791V counted along it
Chain of a4b7(R213S) (human) (P26010 20-798 R213S, chain 2 of 2, further chain): as the sequence (P26010 20-798, chain 2 of 2, further chain) above, with R194S counted along it
Chain of a4b7(G629S) (human) (P13612 34-1032, chain 1 of 2): as the sequence (P13612 34-1032 V824A, chain 1 of 2) above, with A791V counted along it
Chain of a4b7(G629S) (human) (P26010 20-798 G629S, chain 2 of 2, further chain): as the sequence (P26010 20-798, chain 2 of 2, further chain) above, with G610S counted along it
Chain of a4(Q878R)b7 (human) (P13612 34-1032, chain 1 of 2): as the sequence (P13612 34-1032 V824A, chain 1 of 2) above, with A791V counted along it
Chain of a4(Q878R)b7 (human) (P26010 20-798, chain 2 of 2, further chain): as the sequence (P26010 20-798, chain 2 of 2, further chain) above

| EC50 (human alpha4beta7 [1]) [ng/mL] | fluorescence staining intensity (geometric mean) (a4(V824A)b7 (human)) | fluorescence staining intensity (geometric mean) (a4(Q878R)b7 (human)) | fluorescence staining intensity (geometric mean) (a4b7(G629S) (human)) | fluorescence staining intensity (geometric mean) (a4b7(R213S) (human)) | fluorescence staining intensity (geometric mean) (a4b7(E97V) (human)) | IC50 (human alpha4beta7 [2]) [ng/mL] | HUT78 Adhesion IC50 (human alpha4beta7 [3]) [ng/mL] | fluorescence staining intensity (geometric mean) (human alpha4beta7 [4]) | Binder |
| --- | --- | --- | --- | --- | --- | --- | --- | --- | --- |
| 5.1 | 85 | 58 | 65 | 58 | 108 | 23.2 | 3.7 | 97 | 22B2 (antibody, V domains shown, Fully human monoclonal from XenoMouse (human IgG2 or IgG4); kappa light chain; also called 22B2K; 22B2H) VH: EVQLVQSGAEVKEPGESLKISCKGSGYIFTSYWIAWVRQLPGKGLEWMGIIDPNDSDTRYSPSFQGQVTISADKSIHTAYLQWSSLKASDTAMYYCATHRLWLGTLPGGFYIWGQGTMVTVSS VL: DVQMTQSPSSLSASVGDRVTITCQASQDITDYLNWYQQKPGKAPKLLIYDTSNLEAGVPSRFSGSGSGTDFTFTISSLQPEDIATYYCQQYDILPYSFGQGTDLEIK |
| 5.6 | 110 | 71 | 80 | 31 | 135 | 6.2 | 7.5 | 124 | 3A5 (antibody, V domains shown, Fully human monoclonal from XenoMouse (human IgG2 or IgG4); kappa light chain; also called 3A5K; 3A5H) VH: QVQLVQSGAEVKKPGASVKVSCKVSGYTLNDLSMHWVRQAPGKGLEWMGGFDPAEGKIISAQKFQDRVTMTDDTSTDTAYMELSSLRSEDSAVYYCATLDFSSWFDPWGQGTLVTVSS VL: DIQMTQSPSSVSASVGDRVTITCRASQGVISWLAWYQQKPGMAPKLLIYAASILQSGVPSRFSGSGSGTDFTLTISSLQPEDFATYYCQQANSFPWTFGQGTNVEIK |
| 32.9 | 67 | 46 | 59 | 46 | 108 | 103 | 12.2 | 94 | 19G6 (antibody, V domains shown, Fully human monoclonal from XenoMouse (human IgG2 or IgG4); kappa light chain; also called 19G6K; 19G6H) VH: QVQLVESGGDLVKPGGSLRLSCAASGFTFSDYYMSWIRQAPGKGLEWISYISSSGSTMYYADSVKGRFTISRVNAKNSLYLQMNSLRAEDTAVYYCARDRSSGLVSFDYWGQGTLVTVSS VL: DIQMTQSPSSLSASVGDRVTISCQASQDINTYLNWYQQKPGKVPKLLIYDASNLETGVPSRFSGSGSGTDFTFTISGLQPEDIATYYCQQFDNLPITFGQGTRLEIK |
| – | 77 | 51 | 59 | 33 | 106 | 77.6 | 13.7 | 96 | 25C9 (antibody, V domains shown, Fully human monoclonal from XenoMouse (human IgG2 or IgG4); kappa light chain; also called 25C9k; 25C9K) VH: QVQLVESGGGLVKPGGSLRLSCAASGFTFNDYYMSWIRQAPGKGLEWVSYISSSGSAIHYADSVKGRFTISRDNAKNSLYLQMNSLRAEDTAVYYCAREYSSGWAYFDYWGQGTLVTVSS VL: DIQMTQSPSSVSASVGDRVTITCRASQDISSWLAWYQRKPGKAPKVLIYSASSLQSGVPSRFSGSGSGTDFTLTISSLQPEDFATYYCQQADSFPWTFGQGTKVEIK |
| 6.3 | 88 | 58 | 68 | 59 | 116 | 8.7 | 14.9 | 102 | 27G8 (antibody, V domains shown, Fully human monoclonal from XenoMouse (human IgG2 or IgG4); lambda light chain; PE-conjugated in the cynomolgus study; also called 27G8L; 27G8H) VH: EVQLVESGGGLVQPGGSLRLSCAASGFTFSSYWMSWVRQASGKGLEWVANIKQDGSEKYYVDSVKGRFTISRDNAKNSLYLQMNSLRAEDTAVYYCAREGGYDWNYADYYGMDVWGQGTTVTVSS VL: QSVLTQPPSVSEAPRQRVTISCSGSNSNIGNNPVNWYQLFPGRAPKLLIYHDDLLPSGVSDRFSGSRSGTSASLAISGLQSEDETDYYCTAWDDSLNGWVFGGGTKLTVL |

Second part, the binder before the results:

| Binder | EC50 (human alpha4beta7 [1]) [ng/mL] | fluorescence staining intensity (geometric mean) (a4(V824A)b7 (human)) | fluorescence staining intensity (geometric mean) (a4(Q878R)b7 (human)) | fluorescence staining intensity (geometric mean) (a4b7(G629S) (human)) | fluorescence staining intensity (geometric mean) (a4b7(R213S) (human)) | fluorescence staining intensity (geometric mean) (a4b7(E97V) (human)) | IC50 (human alpha4beta7 [2]) [ng/mL] | HUT78 Adhesion IC50 (human alpha4beta7 [3]) [ng/mL] | fluorescence staining intensity (geometric mean) (human alpha4beta7 [4]) |
| --- | --- | --- | --- | --- | --- | --- | --- | --- | --- |
| 26H3 (antibody, V domains shown, Fully human monoclonal from XenoMouse (human IgG2 or IgG4); kappa light chain; also called 26H3K; 26H3H) VH: EVQLVQSGAEVKKPGESLKISCKGSGYSFTGYWIGWVRQMPGKGLEWMGIIYPYDSDTRYSPSFQGQVTISADKSINTAYLQWSSLKASDTAMFYCASHRLWLGEFPGPLNIWGQGTMVTVSS VL: DIQMTQSPSSLSASVGDRVTITCQASQDISNYLNWYQQKPGKAPKLLIYDASNLETGVPSRFSGSGSGTDFTFTINSLQPEDIATYFCQQYDNLPCSFGQGTKLEIK | 9.3 | – | – | – | – | – | 14.1 | 8.9 | 93 |
| 1A10 (antibody, V domains shown, Fully human monoclonal from XenoMouse XG2kl or XG4kl mice (human IgG2 or IgG4); kappa light chain; also called 1A10K; 1A10H) VH: QVQLVQSGAEVKKPGASVKVSCKVSGYTLNDLSMHWVRQAPGKGLEWMGGFDPAEGKIISAQKFQDRVTMTDDTSTDTAYMELSSLRSEDSAVYYCATLDFSSWFDPWGQGTLVTVSS VL: DIQMTQSPSSVSASVGDRVTITCRASQGVSSWLAWYQQKPGMAPKLLIYAASILQSGVPSRFSGSGSGTDFTLTISSLQPEDFATYYCQQANSFPWTFGQGTKVEIK | 4.9 | 102 | 70 | 80 | 31 | 135 | 6.2 | 6.1 | 122 |
| 26G2 (antibody, V domains shown, Fully human monoclonal from XenoMouse (human IgG2 or IgG4); kappa light chain; also called 26G2k; 26G2K) VH: QVQLVESGGGLVKPGGSLRLSCAASGFTFSDYYMSWIRQAPGKGLEWVSYISSIGSAIHYADSVKGRFTISRDNAKNSLYLQMNSLRAEDTAVYYCAREYSSGWAYFDYWGQGTLVTVSS VL: DIQMTQSPSSVSASVGDRVTITCRASQDISSWLAWYQQKPGTAPKVLIYSASSLQNGVPSRFSGRGSGTDFALTISSLQPEDFATYYCQQADSFPWTFGRGTKVEIK | 32.6 | 86 | 58 | 64 | 38 | 113 | 99.6 | 6.9 | 99 |
